The text below walks through data of patent US20110257890A1 (IMMATICS BIOTECHNOLOGIES, published 2011).

This assay addresses T1, recombinant HLA-A*2402 molecules lacking the transmembrane domain (human, biotinylated at the carboxy terminus of the heavy chain).
T1 construct: Loaded with the peptide in question; used on streptavidin beads (aAPC) and as PE- or APC-coupled multimers
In words: peptide-loaded recombinant HLA-A*2402 on beads for T-cell priming, read out with A*2402 multimers.
Regarding YYNAAGFNKL [UQCRB-001], the binding result is listed as “binds”.
Then AYAIIKEEL [ATAD2-001], with “binds”.
Then AYLVYTDRL [PPAP2C-001], with “binds”; and VFIFKGNQF [MMP3-001], with “binds”; and TYGNLLDYL [ABL1-001], with “binds”.
Then SYIDVLPEF [MET-006], with “binds”; and HYKPTPLYF [SMC4-001], with “binds”; and NYLPFIMEL [UCHL5-001], with “binds”.
As for LYQILQGIVF (also called TUMAP encoded by CDK1) [CDC2-001], the binding result is on record as “binds”.
Then QYASRFVQL [PLK4-001], with “binds”.
Regarding FYISPVNKL [AVL9-001], the binding result was “binds”.
For RFLSGIINF [NUF2-002] the value was “binds”; for IYNGKLFDLL [KIF2C-001], “binds”.
Then VFDTAIAHLF [SIAH2-001], with “binds”.
Then VYTTSYQQI [NFYB-001], with “binds”.
As for KYNDTFWKEF [HSP90B1-001], the binding result is reported as “binds”.
Then RYLWATVTI [ASPM-001], with “binds”.
For VYKVVGNLL [IQGAP3-001] the value was “binds”; for VYGIRLEHF [NUF2-001], “binds”; for NYLLYVSNF [MST1R-001], “binds”.
Then NYEETFPHI [MUC6-001], with “binds”; and SYNPLWLRI [ASPM-002], with “binds”; and VYIEKNDKL [ERBB3-001], with “binds”.
